The text below walks through data of PMC10540216, “Activity Guided Azide-methyllysine Photo-trapping for Substrate Profiling of Lysine Demethylases” (Journal of the American Chemical Society, 2023).

To fix the notation:
B1: CSTF3_HUMAN (protein, UniProt Q12996 2-717, looked up)
Cleavage stimulation factor …: SGDGATEQAAEYVPEKVKKAEKKLEENPYDLDAWSILIREAQNQPIDKARKTYERLVAQFPSSGRFWKLYIEAEIKAKNYDKVEKLFQRCLMKVLHIDLWKCYLSYVRETKGKLPSYKEKMAQAYDFALDKIGMEIMSYQIWVDYINFLKGVEAVGSYAENQRITAVRRVYQRGCVNPMINIEQLWRDYNKYEEGINIHLAKKMIEDRSRDYMNARRVAKEYETVMKGLDRNAPSVPPQNTPQEAQQVDMWKKYIQWEKSNPLRTEDQTLITKRVMFAYEQCLLVLGHHPDIWYEAAQYLEQSSKLLAEKGDMNNAKLFSDEAANIYERAISTLLKKNMLLYFAYADYEESRMKYEKVHSIYNRLLAIEDIDPTLVYIQYMKFARRAEGIKSGRMIFKKAREDTRTRHHVYVTAALMEYYCSKDKSVAFKIFELGLKKYGDIPEYVLAYIDYLSHLNEDNNTRVLFERVLTSGSLPPEKSGEIWARFLAFESNIGDLASILKVEKRRFTAFKEEYEGKETALLVDRYKFMDLYPCSASELKALGYKDVSRAKLAAIIPDPVVAPSIVPVLKDEVDRKPEYPKPDTQQMIPFQPRHLAPPGLHPVPGGVFPVPPAAVVLMKLLPPPICFQGPFVQVDELMEIFRRCKIPNTVEEAVRIITGGAPELAVEGNGPVESNAVLTKAVKRPNEDSDEDEEKGAVVPPVHDIYRARQQKRIR
B2: SATB2_HUMAN (protein, UniProt Q9UPW6 1-733, looked up)
DNA-binding protein SATB2: MERRSESPCLRDSPDRRSGSPDVKGPPPVKVARLEQNGSPMGARGRPNGAVAKAVGGLMIPVFCVVEQLDGSLEYDNREEHAEFVLVRKDVLFSQLVETALLALGYSHSSAAQAQGIIKLGRWNPLPLSYVTDAPDATVADMLQDVYHVVTLKIQLQSCSKLEDLPAEQWNHATVRNALKELLKEMNQSTLAKECPLSQSMISSIVNSTYYANVSATKCQEFGRWYKKYKKIKVERVERENLSDYCVLGQRPMHLPNMNQLASLGKTNEQSPHSQIHHSTPIRNQVPALQPIMSPGLLSPQLSPQLVRQQIAMAHLINQQIAVSRLLAHQHPQAINQQFLNHPPIPRAVKPEPTNSSVEVSPDIYQQVRDELKRASVSQAVFARVAFNRTQGLLSEILRKEEDPRTASQSLLVNLRAMQNFLNLPEVERDRIYQDERERSMNPNVSMVSSASSSPSSSRTPQAKTSTPTTDLPIKVDGANINITAAIYDEIQQEMKRAKVSQALFAKVAANKSQGWLCELLRWKENPSPENRTLWENLCTIRRFLNLPQHERDVIYEEESRHHHSERMQHVVQLPPEPVQVLHRQQSQPAKESSPPREEAPPPPPPTEDSCAKKPRSRTKISLEALGILQSFIHDVGLYPDQEAIHTLSAQLDLPKHTIIKFFQNQRYHVKHHGKLKEHLGSAVDVAEYKDEELLTESEENDSEEGSEEMYKVEAEEENADKSKAAPAEIDQR
B3: LMNB2_HUMAN (protein, UniProt Q03252 1-617, looked up)
Lamin-B2: MSPPSPGRRREQRRPRAAATMATPLPGRAGGPATPLSPTRLSRLQEKEELRELNDRLAHYIDRVRALELENDRLLLKISEKEEVTTREVSGIKALYESELADARRVLDETARERARLQIEIGKLRAELDEVNKSAKKREGELTVAQGRVKDLESLFHRSEVELAAALSDKRGLESDVAELRAQLAKAEDGHAVAKKQLEKETLMRVDLENRCQSLQEELDFRKSVFEEEVRETRRRHERRLVEVDSSRQQEYDFKMAQALEELRSQHDEQVRLYKLELEQTYQAKLDSAKLSSDQNDKAASAAREELKEARMRLESLSYQLSGLQKQASAAEDRIRELEEAMAGERDKFRKMLDAKEQEMTEMRDVMQQQLAEYQELLDVKLALDMEINAYRKLLEGEEERLKLSPSPSSRVTVSRATSSSSGSLSATGRLGRSKRKRLEVEEPLGSGPSVLGTGTGGSGGFHLAQQASASGSVSIEEIDLEGKFVQLKNNSDKDQSLGNWRIKRQVLEGEEIAYKFTPKYILRAGQMVTVWAAGAGVAHSPPSTLVWKGQSSWGTGESFRTVLVNADGEEVAMRTVKKSSVMRENENGEEEEEEAEFGEEDLFHQQGDPRTTSRGC
B4: ILF3_HUMAN (protein, UniProt Q12906 1-894, looked up)
Interleukin enhancer-binding …: MRPMRIFVNDDRHVMAKHSSVYPTQEELEAVQNMVSHTERALKAVSDWIDEQEKGSSEQAESDNMDVPPEDDSKEGAGEQKTEHMTRTLRGVMRVGLVAKGLLLKGDLDLELVLLCKEKPTTALLDKVADNLAIQLAAVTEDKYEILQSVDDAAIVIKNTKEPPLSLTIHLTSPVVREEMEKVLAGETLSVNDPPDVLDRQKCLAALASLRHAKWFQARANGLKSCVIVIRVLRDLCTRVPTWGPLRGWPLELLCEKSIGTANRPMGAGEALRRVLECLASGIVMPDGSGIYDPCEKEATDAIGHLDRQQREDITQSAQHALRLAAFGQLHKVLGMDPLPSKMPKKPKNENPVDYTVQIPPSTTYAITPMKRPMEEDGEEKSPSKKKKKIQKKEEKAEPPQAMNALMRLNQLKPGLQYKLVSQTGPVHAPIFTMSVEVDGNSFEASGPSKKTAKLHVAVKVLQDMGLPTGAEGRDSSKGEDSAEETEAKPAVVAPAPVVEAVSTPSAAFPSDATAEQGPILTKHGKNPVMELNEKRRGLKYELISETGGSHDKRFVMEVEVDGQKFQGAGSNKKVAKAYAALAALEKLFPDTPLALDANKKKRAPVPVRGGPKFAAKPHNPGFGMGGPMHNEVPPPPNLRGRGRGGSIRGRGRGRGFGGANHGGYMNAGAGYGSYGYGGNSATAGYSQFYSNGGHSGNASGGGGGGGGGSSGYGSYYQGDNYNSPVPPKHAGKKQPHGGQQKPSYGSGYQSHQGQQQSYNQSPYSNYGPPQGKQKGYNHGQGSYSYSNSYNSPGGGGGSDYNYESKFNYSGSGGRSGGNSYGSGGASYNPGSHGGYGGGSGGGSSYQGKQGGYSQSNYNSPGSGQNYSGPPSSYQSSQGGYGRNADHSMNYQYR
B5: ODP2_HUMAN (protein, UniProt P10515 87-647, looked up)
Dihydrolipoyllysine-residue …: SLPPHQKVPLPSLSPTMQAGTIARWEKKEGDKINEGDLIAEVETDKATVGFESLEECYMAKILVAEGTRDVPIGAIICITVGKPEDIEAFKNYTLDSSAAPTPQAAPAPTPAATASPPTPSAQAPGSSYPPHMQVLLPALSPTMTMGTVQRWEKKVGEKLSEGDLLAEIETDKATIGFEVQEEGYLAKILVPEGTRDVPLGTPLCIIVEKEADISAFADYRPTEVTDLKPQVPPPTPPPVAAVPPTPQPLAPTPSAPCPATPAGPKGRVFVSPLAKKLAVEKGIDLTQVKGTGPDGRITKKDIDSFVPSKVAPAPAAVVPPTGPGMAPVPTGVFTDIPISNIRRVIAQRLMQSKQTIPHYYLSIDVNMGEVLLVRKELNKILEGRSKISVNDFIIKASALACLKVPEANSSWMDTVIRQNHVVDVSVAVSTPAGLITPIVFNAHIKGVETIANDVVSLATKAREGKLQPHEFQGGTFTISNLGMFGIKNFSAIINPPQACILAIGASEDKLVPADNEKGFDVASMMSVTLSCDHRVVDGAVGAQWLAEFRKYLEKPITMLL
B6: P66A_HUMAN (protein, UniProt Q86YP4 1-633, looked up)
Transcriptional repressor …: MTEEACRTRSQKRALERDPTEDDVESKKIKMERGLLASDLNTDGDMRVTPEPGAGPTQGLLRATEATAMAMGRGEGLVGDGPVDMRTSHSDMKSERRPPSPDVIVLSDNEQPSSPRVNGLTTVALKETSTEALMKSSPEERERMIKQLKEELRLEEAKLVLLKKLRQSQIQKEATAQKPTGSVGSTVTTPPPLVRGTQNIPAGKPSLQTSSARMPGSVIPPPLVRGGQQASSKLGPQASSQVVMPPLVRGAQQIHSIRQHSSTGPPPLLLAPRASVPSVQIQGQRIIQQGLIRVANVPNTSLLVNIPQPTPASLKGTTATSAQANSTPTSVASVVTSAESPASRQAAAKLALRKQLEKTLLEIPPPKPPAPEMNFLPSAANNEFIYLVGLEEVVQNLLETQGRMSAATVLSREPYMCAQCKTDFTCRWREEKSGAIMCENCMTTNQKKALKVEHTSRLKAAFVKALQQEQEIEQRLLQQGTAPAQAKAEPTAAPHPVLKQVIKPRRKLAFRSGEARDWSNGAVLQASSQLSRGSATTPRGVLHTFSPSPKLQNSASATALVSRTGRHSERTVSAGKGSATSNWKKTPLSTGGTLAFVSPSLAVHKSSSAVDRQREYLLDMIPPRSIPQSATWK
B7: NU107_HUMAN (protein, UniProt P57740 1-925, looked up)
Nuclear pore complex protein …: MDRSGFGEISSPVIREAEVTRTARKQSAQKRVLLQASQDENFGNTTPRNQVIPRTPSSFRQPFTPTSRSLLRQPDISCILGTGGKSPRLTQSSGFFGNLSMVTNLDDSNWAAAFSSQRSGLFTNTEPHSITEDVTISAVMLREDDPGEAASMSMFSDFLQSFLKHSSSTVFDLVEEYENICGSQVNILSKIVSRATPGLQKFSKTASMLWLLQQEMVTWRLLASLYRDRIQSALEEESVFAVTAVNASEKTVVEALFQRDSLVRQSQLVVDWLESIAKDEIGEFSDNIEFYAKSVYWENTLHTLKQRQLTSYVGSVRPLVTELDPDAPIRQKMPLDDLDREDEVRLLKYLFTLIRAGMTEEAQRLCKRCGQAWRAATLEGWKLYHDPNVNGGTELEPVEGNPYRRIWKISCWRMAEDELFNRYERAIYAALSGNLKQLLPVCDTWEDTVWAYFRVMVDSLVEQEIQTSVATLDETEELPREYLGANWTLEKVFEELQATDKKRVLEENQEHYHIVQKFLILGDIDGLMDEFSKWLSKSRNNLPGHLLRFMTHLILFFRTLGLQTKEEVSIEVLKTYIQLLIREKHTNLIAFYTCHLPQDLAVAQYALFLESVTEFEQRHHCLELAKEADLDVATITKTVVENIRKKDNGEFSHHDLAPALDTGTTEEDRLKIDVIDWLVFDPAQRAEALKQGNAIMRKFLASKKHEAAKEVFVKIPQDSIAEIYNQCEEQGMESPLPAEDDNAIREHLCIRAYLEAHETFNEWFKHMNSVPQKPALIPQPTFTEKVAHEHKEKKYEMDFGIWKGHLDALTADVKEKMYNVLLFVDGGWMVDVREDAKEDHERTHQMVLLRKLCLPMLCFLLHTILHSTGQYQECLQLADMVSSERHKLYLVFSKEELRKLLQKLRESSLMLLDQGLDPLGYEIQL
B8: SYG_HUMAN (protein, UniProt P41250 37-739, looked up)
Glycine--tRNA ligase: SAASCPPISLPAAASRSSMDGAGAEEVLAPLRLAVRQQGDLVRKLKEDKAPQVDVDKAVAELKARKRVLEAKELALQPKDDIVDRAKMEDTLKRRFFYDQAFAIYGGVSGLYDFGPVGCALKNNIIQTWRQHFIQEEQILEIDCTMLTPEPVLKTSGHVDKFADFMVKDVKNGECFRADHLLKAHLQKLMSDKKCSVEKKSEMESVLAQLDNYGQQELADLFVNYNVKSPITGNDLSPPVSFNLMFKTFIGPGGNMPGYLRPETAQGIFLNFKRLLEFNQGKLPFAAAQIGNSFRNEISPRSGLIRVREFTMAEIEHFVDPSEKDHPKFQNVADLHLYLYSAKAQVSGQSARKMRLGDAVEQGVINNTVLGYFIGRIYLYLTKVGISPDKLRFRQHMENEMAHYACDCWDAESKTSYGWIEIVGCADRSCYDLSCHARATKVPLVAEKPLKEPKTVNVVQFEPSKGAIGKAYKKDAKLVMEYLAICDECYITEMEMLLNEKGEFTIETEGKTFQLTKDMINVKRFQKTLYVEEVVPNVIEPSFGLGRIMYTVFEHTFHVREGDEQRTFFSFPAVVAPFKCSVLPLSQNQEFMPFVKELSEALTRHGVSHKVDDSSGSIGRRYARTDEIGVAFGVTIDFDTVNKTPHTATLRDRDSMRQIRAEISELPSIVQDLANGNITWADVEARYPLFEGQETGKKETIEE

The test deals with KDM4A-I71AzF. The test can be described thus: CASI: photo-crosslinking with HEK293T cell extracts, StrepTactin enrichment and LC-MS/MS proteomics.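 Note: lysates from HEK293T cells pretreated with a KDM4 inhibitor to raise proteome methylation, affinity-purified after ±UV, gel-resolved, trypsin-digested, with exclusive unique peptides per protein averaged per condition.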 It is filed as binding, human. Conditions: sheet "Final results but with 0.01".
In the case of B1, the “Fold change (+UV/-UV)” value is on record as 0. Regarding B2, the “Fold change (+UV/-UV)” value amounted to 1.

As to B3, the “Fold change (+UV/-UV)” value was found to be 0.5. On to B4, for which the “Fold change (+UV/-UV)” value was determined as 0.5.

With B5, the “Fold change (+UV/-UV)” value was found to be 1.

With B6, the “Fold change (+UV/-UV)” value was found to be 1.5.

Take B7: the “Fold change (+UV/-UV)” value is recorded as 2. The result for B8 reads 1.
